Test system: c-Abl (mouse)
Experiment: phosphorylation enrichment, bacterial display (enrichment ratio); higher = better substrate or ligand; peptides without Tyr show the background
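Note: 11-residue human phosphosite peptides and single-mutation variants displayed on the E. coli surface, counted by deep sequencing, each peptide's frequency after selection divided by its frequency in the unselected input library; frequency after pTyr selection over input frequency; kinase dosed for 20-30% of maximal phosphorylation in three min.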

| Sequence | phosphorylation enrichment |
| --- | --- |
| PIDLYYLMDLS [ITGB2_Y131] | 1.09 |
| THLAPYSDELR [APOA1_Y190] | 0.521 |
| FFVVEYRNQKP [MUC17_Y4332_D4334N_YF] | 1.52 |
| GCLSKYSGVFS [TUBGCP6_Y1624_V1621L] | 0.673 |
| DRLASYLEKVR [KRT13_Y118] | 0.451 |
| KLPDAYEPLIL [G6PD_Y437_R439P] | 0.79 |
| ESKKHYGYSLY [ANXA3_Y295_F291S] | 0.435 |
| ERWLKYFPIEQ [HS3ST5_Y244] | 0.624 |
| DTSKMYIPHTD [EXPH5_Y782] | 0.549 |
| MCITQYKRESQ [PRNP_Y218_E219K] | 0.454 |
| NAPNSYGRRPS [CDKN2A_Y44_I49S] | 0.63 |
| LDPDSYNKFEN [FOXC1_Y159_M161K] | 1.25 |
| LNGDRYFKGIV [DCX_Y64_R59L] | 0.703 |
| AAVNGYVFGGG [ECHS1_Y137_A138V] | 0.582 |
| SHNKYYMLVAH [MFSD8_Y134_R139H] | 0.574 |
| LYSGDYYRIQG [DDR2_Y740] | 7.77 |
| SLMGCYNLTFM [HS6ST3_Y323_V320M] | 1.14 |

| Sequence | phosphorylation enrichment |
| --- | --- |
| LRVHSYKSMQH [DRC7_Y516_P521H] | 1.13 |
| PKDSAYVTWEP | 1.16 |
| IKAGAYDFPSP [CAMK2A_Y230] | 0.551 |
| QLAPQYTFAQG [FLNA_Y1761_YF] | 0.691 |
| VKANTYEKFWP [GATM_Y100_YF] | 0.704 |
| LTERGYSFTTT [ACTB_Y198] | 0.586 |
| LTVVIYVLVGR [EPHA3_Y561_I564V] | 0.81 |
| RQQEVYLLFKQ [RARRES1_Y159_D158V_YF] | 1.64 |
| RMQLPYDSTWE [PDGFRB_Y589_P584R] | 0.913 |
| VCDSDYSASRW [LRP5_Y1552] | 0.737 |
| FRIDHYLGKEM [G6PD_Y202_YF] | 0.54 |
| CTTIHYNFMRN [TP53_Y234_C238R_YF] | 0.767 |
| VPVDGYISGLL [PAK6_Y81_M76V] | 0.745 |
| KLFRVYCDMNT [FGB_Y269_P265L_YF] | 0.838 |
| ITGNGYYFRVF [MYBPC3_Y1135_I1131T] | 0.701 |
| HDHFGYRQSVT [CD55_Y245_R240H_YF] | 0.659 |

Molecular target: Fes (UniProt P07332)
Experiment: as above

Fes, sequence (P07332 whole entry, looked up): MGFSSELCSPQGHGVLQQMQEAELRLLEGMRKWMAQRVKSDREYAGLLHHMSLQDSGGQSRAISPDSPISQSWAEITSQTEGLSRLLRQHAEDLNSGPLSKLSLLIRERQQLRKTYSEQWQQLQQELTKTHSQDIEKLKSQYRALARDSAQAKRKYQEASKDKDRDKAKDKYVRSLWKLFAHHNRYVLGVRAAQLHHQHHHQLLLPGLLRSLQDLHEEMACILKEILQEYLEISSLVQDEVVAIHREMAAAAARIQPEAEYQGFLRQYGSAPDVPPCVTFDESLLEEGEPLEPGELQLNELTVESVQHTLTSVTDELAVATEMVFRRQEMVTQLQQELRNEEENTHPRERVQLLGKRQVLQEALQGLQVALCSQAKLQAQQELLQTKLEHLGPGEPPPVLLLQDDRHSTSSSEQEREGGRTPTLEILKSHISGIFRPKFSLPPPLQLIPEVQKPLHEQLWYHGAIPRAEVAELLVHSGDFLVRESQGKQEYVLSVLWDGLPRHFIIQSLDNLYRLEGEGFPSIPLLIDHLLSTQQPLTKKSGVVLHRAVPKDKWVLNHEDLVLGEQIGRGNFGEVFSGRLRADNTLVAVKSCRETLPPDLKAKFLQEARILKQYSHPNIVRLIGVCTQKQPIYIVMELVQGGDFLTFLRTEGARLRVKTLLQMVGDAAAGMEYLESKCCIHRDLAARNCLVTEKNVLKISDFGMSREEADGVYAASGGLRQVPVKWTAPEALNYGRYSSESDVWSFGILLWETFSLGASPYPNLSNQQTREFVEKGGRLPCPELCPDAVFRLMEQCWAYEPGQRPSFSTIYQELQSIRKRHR

| Sequence | phosphorylation enrichment |
| --- | --- |
| PIDLYYLMDLS [ITGB2_Y131] | 4.2 |
| THLAPYSDELR [APOA1_Y190] | 0.968 |
| FFVVEYRNQKP [MUC17_Y4332_D4334N_YF] | 1.65 |
| GCLSKYSGVFS [TUBGCP6_Y1624_V1621L] | 1.01 |
| DRLASYLEKVR [KRT13_Y118] | 0.677 |
| KLPDAYEPLIL [G6PD_Y437_R439P] | 1.1 |
| ESKKHYGYSLY [ANXA3_Y295_F291S] | 0.593 |
| ERWLKYFPIEQ [HS3ST5_Y244] | 1.27 |
| DTSKMYIPHTD [EXPH5_Y782] | 0.786 |
| MCITQYKRESQ [PRNP_Y218_E219K] | 0.837 |
| NAPNSYGRRPS [CDKN2A_Y44_I49S] | 0.849 |
| LDPDSYNKFEN [FOXC1_Y159_M161K] | 1.69 |
| LNGDRYFKGIV [DCX_Y64_R59L] | 4.84 |
| AAVNGYVFGGG [ECHS1_Y137_A138V] | 0.542 |
| SHNKYYMLVAH [MFSD8_Y134_R139H] | 0.757 |
| LYSGDYYRIQG [DDR2_Y740] | 1.83 |
| SLMGCYNLTFM [HS6ST3_Y323_V320M] | 1.63 |

| Sequence | phosphorylation enrichment |
| --- | --- |
| LRVHSYKSMQH [DRC7_Y516_P521H] | 0.883 |
| PKDSAYVTWEP | 1.4 |
| IKAGAYDFPSP [CAMK2A_Y230] | 0.708 |
| QLAPQYTFAQG [FLNA_Y1761_YF] | 0.564 |
| VKANTYEKFWP [GATM_Y100_YF] | 0.793 |
| LTERGYSFTTT [ACTB_Y198] | 0.758 |
| LTVVIYVLVGR [EPHA3_Y561_I564V] | 0.63 |
| RQQEVYLLFKQ [RARRES1_Y159_D158V_YF] | 1.48 |
| RMQLPYDSTWE [PDGFRB_Y589_P584R] | 1.33 |
| VCDSDYSASRW [LRP5_Y1552] | 1.02 |
| FRIDHYLGKEM [G6PD_Y202_YF] | 1.63 |
| CTTIHYNFMRN [TP53_Y234_C238R_YF] | 1.07 |
| VPVDGYISGLL [PAK6_Y81_M76V] | 1.01 |
| KLFRVYCDMNT [FGB_Y269_P265L_YF] | 1.33 |
| ITGNGYYFRVF [MYBPC3_Y1135_I1131T] | 1.08 |
| HDHFGYRQSVT [CD55_Y245_R240H_YF] | 0.896 |

Reference: the supplement of paper PMC10065799, “High-throughput profiling of sequence recognition by tyrosine kinases and SH2 domains using bacterial peptide display” (eLife, 2023)
